Experimental findings from article PMC5289644 are described below.

Assay [1] deals with HA-tagged intracellular part of Smβ-Int1 (Smβ-Int1 C-term) (S. mansoni).
Assay [2] shares this target. This is another data set of the same source.

Take “V5-tagged SmVKR1 (wildtype venus kinase receptor 1 of S. mansoni)”: in assay [1], the GVBD (%) of Xenopus oocytes without L-Arg; Smβ-Int1, SmILK, SmPINCH, SmNck2 and SmVKR1 co-expressed (Exp 1) was determined as 90%; the GVBD (%) without L-Arg; as Exp 1 with SmILKΔAnk1 in place of SmILK (Exp 2) is 0%; the GVBD (%) without L-Arg; as Exp 1 with SmNck2ΔSH3 in place of SmNck2 (Exp 5) amounted to 10%; the GVBD (%) without L-Arg; as Exp 1 with SmPINCHΔLIM1 in place of SmPINCH (Exp 4) turned out to be 0%. In assay [1], this substance came in with a GVBD (%) without L-Arg; as Exp 1 with SmPINCHΔLIM4 in place of SmPINCH (Exp 3) of 0% and a GVBD (%) without L-Arg; as Exp 1 with the ILK inhibitor QLT-0267 (1 μM) (Exp 7) of 0%. In assay [2], this substance returned a GVBD (%) of Xenopus oocytes without L-Arg; Smβ-Int1, SmILK and SmVKR1 co-expressed, no SmPINCH (Inj 10) of 0%; a GVBD (%) of Xenopus oocytes without L-Arg; Smβ-Int1, SmILK, SmPINCH and SmVKR1 co-expressed (Inj 11) of 80%; a GVBD (%) of Xenopus oocytes without L-Arg; Smβ-Int1, SmILK, SmPINCH, SmNck2 and SmVKR1 co-expressed, with the ILK inhibitor QLT-0267 (1 μM) (Inj 13) of 0%; a GVBD (%) of Xenopus oocytes without L-Arg; Smβ-Int1, SmILK, SmPINCH, SmNck2ΔSH3 and SmVKR1 co-expressed (Inj 15) of 10%. In assay [2], this substance had a GVBD (%) of Xenopus oocytes without L-Arg; Smβ-Int1, SmILK, SmPINCHΔLIM4 in place of SmPINCH and SmVKR1 co-expressed (Inj 14) of 0%; a GVBD (%) of Xenopus oocytes without L-Arg; Smβ-Int1, SmILKΔAnk1 in place of SmILK, SmPINCH and SmVKR1 co-expressed (Inj 12) of 0%; a GVBD (%) of Xenopus oocytes without L-Arg; Smβ-Int1, SmPINCH and SmVKR1 co-expressed, no SmILK (Inj 9) of 0%.
